Substitutions are numbered along the chain they refer to. Names may count otherwise.

The chains are these.
B1: Antibody 128 (antibody, human IgG1, kappa)
heavy chain: not shown
light chain: DIQMTQSPSSVSATVGDRVTITCRASQSISINLHWYQQKPGKAPKLLIYFASQSISGVPSRFSGSGSGTDFSLTINSLQPEDFATYYCQQSNSFPLTFGGGTKVEIKRTVAAPSVFIFPPSDEQLKSGTASVVCLLNNFYPREAKVQWKVDNALQSGNSQESVTEQDSKDSTYSLSSTLTLSKADYEKHKVYACEVTHQGLSSPVTKSFNRGEC
B2: Antibody 130 (antibody, human IgG1, kappa)
heavy: not shown
light: B1 light chain with T14S, V15P
B3: scFv AQ-G10 (scFv)
scFv: QVQLVQSGAEVEKPGASVKVSCKASGYTFTDYYLHWVRQAPGQGLEWMGWIDPENGDTEYAPKFQGGVTMTTDTSTSTAYMELRSLRSDDTAVYYCNANKELRYFDVWGQGTMVTVSSGGGGSGGGGSGGGGSEIVMTQSPATLSVSPGERATLSCRASQSISINLHWYQQKPGQAPRLLIYFASQSISGIPARFSGSGSGTEFTLTISSLQSEDFAVYYCQQSNSFPLTFGGGTKVEIKR
notes: scFv-80 variant: VH K12E, R66G; not shown: proprietary C-terminal FLAG tag
B4: scFv BU-B1 (scFv)
scFv: B3 scFv with E12K, L34M, G67R
notes: scFv-80 variant: VH L34M; not shown: proprietary C-terminal FLAG tag
B5: scFv CE-B1 (scFv)
scFv: B3 scFv with E12K, F29L, G67R
notes: scFv-80 variant: VH F29L; not shown: proprietary C-terminal FLAG tag
B6: scFv CR-B1 (scFv)
scFv: B3 scFv with E12K, G67R, D89E
notes: scFv-80 variant: VH D85E; not shown: proprietary C-terminal FLAG tag
B7: scFv BB-A9 (scFv)
scFv: B3 scFv with E12K, T28A, G67R, T69S
notes: scFv-80 variant: VH T28A, T68S; not shown: proprietary C-terminal FLAG tag
B8: scFv AX-G4 (scFv)
scFv: B3 scFv with E12K, G67R, S159P
notes: scFv-80 variant: VL S26P; not shown: proprietary C-terminal FLAG tag
B9: scFv AV-F11 (scFv)
scFv: B3 scFv with E12K, G67R, S117P, I208T
notes: scFv-80 variant: VH S112P; VL I75T; not shown: proprietary C-terminal FLAG tag
B10: scFv AU-G9 (scFv)
scFv: B3 scFv with E12K, Q43R, G67R, I188T
notes: scFv-80 variant: VH Q43R; VL I55T; not shown: proprietary C-terminal FLAG tag
B11: scFv CE-A6 (scFv)
scFv: B3 scFv with E12K, G67R, G197S
notes: scFv-80 variant: VL G64S; not shown: proprietary C-terminal FLAG tag
B12: scFv AZ-D8 (scFv)
scFv: B3 scFv with E12K, Y27C, G67R
notes: scFv-80 variant: VH Y27C; not shown: proprietary C-terminal FLAG tag
B13: scFv CW-H7 (scFv)
scFv: B3 scFv with E12K, G67R, V146M
notes: scFv-80 variant: VL V13M; not shown: proprietary C-terminal FLAG tag
B14: scFv BZ-G10 (scFv)
scFv: B3 scFv with E12K, G67R, Q160R
notes: scFv-80 variant: VL Q27R; not shown: proprietary C-terminal FLAG tag
B15: scFv AY-B2 (scFv)
scFv: B3 scFv with E12K, G67R, M70V
notes: scFv-80 variant: VH M69V; not shown: proprietary C-terminal FLAG tag
B16: scFv BY-B4 (scFv)
scFv: B3 scFv with E12K, T28A, G67R
notes: scFv-80 variant: VH T28A; not shown: proprietary C-terminal FLAG tag
B17: scFv AY-G7 (scFv)
scFv: B3 scFv with E12K, G67R, Y219H
notes: scFv-80 variant: VL Y86H; not shown: proprietary C-terminal FLAG tag
B18: scFv CW-H1 (scFv)
scFv: B3 scFv with E12K, G67R, S185R
notes: scFv-80 variant: VL S52R; not shown: proprietary C-terminal FLAG tag
B19: scFv BV-B2 (scFv)
scFv: B3 scFv with E12K, G67R, D215G
notes: scFv-80 variant: VL D82G; not shown: proprietary C-terminal FLAG tag
B20: scFv CL-G7 (scFv)
scFv: B3 scFv with E10Q, E12K, G67R
notes: scFv-80 variant: VH E10Q; not shown: proprietary C-terminal FLAG tag

The first experiment deals with T1, human IL-23 (human, UniProt P29460 23-328; Q9NPF7 20-189).
T1 construct: Recombinant (Ebioscience); HIS-tagged in flow cytometry, biotinylated in some assays; also called hIL-23; rhIL-23
T1 sequence 1: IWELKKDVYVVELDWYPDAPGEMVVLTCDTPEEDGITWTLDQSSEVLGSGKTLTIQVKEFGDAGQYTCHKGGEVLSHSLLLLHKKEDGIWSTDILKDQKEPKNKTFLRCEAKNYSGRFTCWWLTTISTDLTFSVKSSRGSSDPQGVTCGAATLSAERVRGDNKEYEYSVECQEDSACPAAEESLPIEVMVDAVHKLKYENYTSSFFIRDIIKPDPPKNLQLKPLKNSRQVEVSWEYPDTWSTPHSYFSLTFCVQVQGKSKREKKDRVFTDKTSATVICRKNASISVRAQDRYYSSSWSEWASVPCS
T1 sequence 2: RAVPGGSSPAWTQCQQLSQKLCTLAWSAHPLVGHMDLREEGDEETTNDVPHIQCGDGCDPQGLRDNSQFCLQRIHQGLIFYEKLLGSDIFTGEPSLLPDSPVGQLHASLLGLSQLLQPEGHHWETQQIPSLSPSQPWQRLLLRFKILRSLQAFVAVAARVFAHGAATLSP
Put plainly: ELISA, coated IL-23. Put shortly: (§1)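 Maxisorp plates were coated overnight at 4° C with cytokine at 1 μg/mL in carbonate buffer pH 9.6, then blocked for 1 hour at 25° C with 1% BSA in PBS. Antibody titrations were allowed to bind for 1 hour at 25° C and detected with goat anti-human IgG or anti-murine immunoglobulin HRP (1:2000, 1 hour), followed by TMB development stopped with 1M HCl. Binding is reported as absorbance. Readings were taken at 450 nm against a 620 nm reference.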
Regarding B1, the binding result was “binds”.

With B2, the binding result is reported as “binds”.

In the next experiment the target is T2, human IL-12 (human, UniProt P29460 23-328; P29459 23-219).
T2 construct: Recombinant (Peprotech); FLAG-tagged IL-12 in the flow cytometry assays, biotinylated in the IL-12Rβ2 assay; also called hIL-12
T2 sequence 1: T1 sequence 1
T2 sequence 2: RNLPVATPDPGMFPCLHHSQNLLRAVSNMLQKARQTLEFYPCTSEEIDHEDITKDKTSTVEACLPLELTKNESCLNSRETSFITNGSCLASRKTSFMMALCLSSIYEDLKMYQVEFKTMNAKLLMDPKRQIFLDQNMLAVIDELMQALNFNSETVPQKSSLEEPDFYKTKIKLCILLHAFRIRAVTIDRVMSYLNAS
Put plainly: SPR, purified scFv captured via FLAG. The protocol: (§2) A number of the scFv variants presented in TABLE 4 were selected for full characterization of binding kinetics, encompassing a broad range of mutation profiles and binding affinities. Large-scale protein expressions were carried out for each scFv. The expressed scFvs were purified as monomeric proteins and tested for binding against IL-12 and IL-23 by SPR (TABLE 5).
(§3) Purified scFvs were subjected to full kinetic characterization using a BIAcore T100 biosensor (GE Healthcare). Approximately 10,000 RU of the proprietry FLAG-specific capture molecule was immobilized on a CM5 Series S Sensor chip, using standard amine coupling chemistry in flow cells (FC) 1 and FC2 (or alternatively FC3 and FC4) of the BIAcore T100 Biosensor. The running buffer used was HBS-EP+ (BIAcore) and interactions measured at 30° C. or 35° C. to promote differentiation of scFvs with very similiar kd values. Peak purified FLAG-tagged scFvs (prepared as described in the previous paragraph) were diluted to 10 nM in running buffer, and captured on FC2 at a flow rate of 10 μl/min in order to capture 50 RU of scFv (typically 60 sec was sufficient to capture this level of tagged scFv). After an appropriate stabilization period, the target, IL-12 or IL-23, were passed over FC1 and FC2 at a flow rate of 60 μl/min at concentrations ranging from 81 nM to 0.13 nM (using a five-fold dilution of IL-12) and 81 nM to 1 nM (using a three-fold dilution of IL-23). The contact time for association was 180 sec and dissociation measured for 10 mins for the highest concentration and 300 sec for all other concentrations in the series. The sensorgram data from FC2 was subtracted from FC1 and a buffer only control. The curves were fitted using a 1:1 Langmuir equation to generate the kₐ, kd and KD values.
On to B3, for which the Kd amounted to 0.35 nM, the koff came to 0.00052 s⁻¹ and the kon came out at 1.5e+06 M⁻¹ s⁻¹.

Molecule B4 registered a Kd of 0.12 nM, a koff of 0.00024 s⁻¹ and an on-rate (kon) of 2e+06 M⁻¹ s⁻¹.

Molecule B5 returned a Kd of 0.089 nM, a koff of 0.00018 s⁻¹ and a kon of 2e+06 M⁻¹ s⁻¹.

For the molecule B6, binding was characterised by a dissociation constant (Kd) of 0.23 nM, the koff was determined as 0.00044 s⁻¹ and the kon worked out at 1.9e+06 M⁻¹ s⁻¹.

Take B7: the Kd amounted to 0.12 nM, the koff is 0.00023 s⁻¹ and the on-rate (kon) was determined as 2e+06 M⁻¹ s⁻¹.

With B8, the dissociation constant Kd was 0.14 nM, the koff turned out to be 0.00031 s⁻¹ and the on-rate constant (kon) amounted to 2.3e+06 M⁻¹ s⁻¹.

The molecule B9 registered a Kd of 0.2 nM, a koff of 0.00033 s⁻¹ and a kon of 1.6e+06 M⁻¹ s⁻¹.

As to B10, the Kd was found to be 0.11 nM, the koff is 0.00024 s⁻¹ and the kon came out at 2.1e+06 M⁻¹ s⁻¹.

Another experiment concerns the target T1, human IL-23. As to the kind of experiment: SPR, purified scFv captured via FLAG. The protocol:
as §2, §3
B3 yielded a dissociation constant (Kd) of 0.17 nM, an off-rate constant (koff) of 4.9e-05 s⁻¹ and a kon of 280000 M⁻¹ s⁻¹.

B4 registered a Kd of 0.12 nM, an off-rate (koff) of 3.7e-05 s⁻¹ and a kon of 300000 M⁻¹ s⁻¹.

For B5, the dissociation constant (Kd) was determined as 0.098 nM, the koff came to 3e-05 s⁻¹ and the kon turned out to be 310000 M⁻¹ s⁻¹.

On to B6, for which the Kd came to 0.13 nM, the koff amounted to 4.1e-05 s⁻¹ and the kon turned out to be 320000 M⁻¹ s⁻¹.

B7: the Kd came to 0.16 nM, the koff is 4.4e-05 s⁻¹ and the kon is 310000 M⁻¹ s⁻¹.

As to B8, binding was characterised by a dissociation constant (Kd) of 0.15 nM, the koff is 5.5e-05 s⁻¹ and the kon is 360000 M⁻¹ s⁻¹.

With B9, the Kd stood at 0.093 nM, the koff was found to be 2.5e-05 s⁻¹ and the kon turned out to be 270000 M⁻¹ s⁻¹.

In turn, B10 yielded a Kd of 0.13 nM, a koff of 4.4e-05 s⁻¹ and a kon of 340000 M⁻¹ s⁻¹.

The target of another experiment is T1, human IL-23. As to the kind of experiment: SPR screen, crude scFv captured via FLAG. The protocol:
Approximately 6500 individual scFvs recovered from the ribosome display reactions were expressed and screened for binding against IL-23 using a high-throughout SPR assay. The variants were ranked according to the kd and the best variants were sequenced at the nucleic acid level.
High-throughput SPR screening was conducted using a BIAcore A100 biosensor (GE Healthcare). Approximately 10 000 RU of the proprietary FLAG-specific capture molecule was immobilized on a CM5 Series S Sensor chip, using standard amine coupling chemistry on Spots 1 & 5 (outer spots) and 3,000RU to Spots 2 & 4 (inner spots) in each of the four flow cells of the BIAcore A100 Biosensor. The running buffer used was HBS-EP+ (BIAcore) and all interactions measured at 25° C. Crude periplasmic preparations of FLAG-tagged scFvs (prepared as described in the previous paragraph), were diluted two-fold in running buffer before capturing at a flow rate of 5u1/min for 60 sec. Approx. 100RU (on outer spots) and 50RU (on inner spots) of tagged scFv was captured. Following a 2 min stabilization period, IL-23 was passed over all spots of all four flow cells simultaneously at a flow rate of 30u1/min for 120 sec and dissociation monitored for 200 sec. Generated sensorgrams were referenced against the unmodified spot 3 of each flow cell, and fitted using a 1:1 Langmuir equation with R1 set to local to account for varying ligand densities to generate the kₐ, kd and KD values.
B3: the koff turned out to be 0.00029 s⁻¹.

Regarding B4, the koff turned out to be 0.00029 s⁻¹.

B11 displayed a koff of 0.00033 s⁻¹.

The molecule B12 had a koff of 4.3e-05 s⁻¹.

As to B13, the koff stood at 0.000278 s⁻¹.

The molecule B14 came in with a koff of 0.00036 s⁻¹.

B5 had a koff of 0.00028 s⁻¹.

In the case of B15, the koff stood at 0.0001 s⁻¹.

In turn, B16 registered a koff of 0.00033 s⁻¹.

As to B17, the off-rate constant (koff) stood at 0.00012 s⁻¹.

B18 yielded a dissociation rate constant (koff) of 0.00016 s⁻¹. This koff and that of the molecule before are within 1.5-fold of each other.

As to B6, the koff was 0.00026 s⁻¹. Compared with the last molecule, the koff is about 1.6-fold higher.

As to B7, the koff was 0.00045 s⁻¹.

B8 registered a koff of 0.00036 s⁻¹.

B9 returned an off-rate (koff) of 0.00028 s⁻¹.

For B19, the koff amounted to 0.00029 s⁻¹.

B10: the koff was 0.00031 s⁻¹.

B20 showed a koff of 0.00012 s⁻¹.

The next experiment has as its target T2, human IL-12. Put plainly: ELISA, coated IL-12. The essentials: as §1
In the case of B1, the binding result is listed as “binds”.

For B2, the binding result is reported as “binds”.

Values taken from patent publication US20110262445A1 (CEPHALON AUSTRALIA, published 2011).
